Test results reported in patent US7807471.

Molecular target: recombinant murine IL-12 (R&D Systems) (murine) (UniProt P43431)
Assay: cell-based or functional assay

- in vitro neutralization of IL-12 (times (against the anti-p35 mAb)): 5
Substance: C17.8 (rat anti-mouse IL-12/IL-23p40, IgG2a) (antibody)
